Data on six molecules can be found in article PMC8892516, “Intragenic suppressors unravel the role of the SCREAM ACT-like domain for bHLH partner selectivity in stomatal development” (Proceedings of the National Academy of Sciences of the …, 2022).

T1: SCRM (1-494), recombinant (Arabidopsis thaliana, UniProt Q9LSE2 1-494)
T1 construct: SCREAM (SCRM, ICE1), Arabidopsis thaliana, At3G26744, residues 1-494; the purification methods tell thrombin cleavage; source: E. coli BL21, purified (glutathione resin, thrombin, Superdex-200); not shown: GST, N-terminal, cleaved
T1 sequence (looked up): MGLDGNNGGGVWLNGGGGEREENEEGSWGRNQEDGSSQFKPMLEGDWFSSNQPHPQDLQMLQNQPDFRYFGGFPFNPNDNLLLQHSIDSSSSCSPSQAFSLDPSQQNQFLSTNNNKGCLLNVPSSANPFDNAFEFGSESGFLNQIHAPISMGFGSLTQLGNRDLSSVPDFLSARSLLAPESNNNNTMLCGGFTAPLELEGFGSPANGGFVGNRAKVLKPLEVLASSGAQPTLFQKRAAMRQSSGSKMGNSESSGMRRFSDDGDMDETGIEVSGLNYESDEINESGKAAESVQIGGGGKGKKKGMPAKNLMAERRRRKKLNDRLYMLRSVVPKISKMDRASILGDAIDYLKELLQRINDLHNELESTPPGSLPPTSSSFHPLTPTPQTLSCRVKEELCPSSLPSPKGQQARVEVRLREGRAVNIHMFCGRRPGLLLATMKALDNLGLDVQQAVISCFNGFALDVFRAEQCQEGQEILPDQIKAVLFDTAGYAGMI

T2: GST-fused SCRM (1-494) (Arabidopsis thaliana, UniProt Q9LSE2 1-494)
T2 construct: SCREAM (SCRM, ICE1), Arabidopsis thaliana, At3G26744, residues 1-494; GST kept for loading on anti-GST probes; also called GST SCRM; GST-tagged SCRM; source: E. coli BL21, purified (glutathione agarose resin); not shown: GST, N-terminal, kept
T2 sequence (looked up): T1 sequence (looked up)

T3: GST-fused SCRMΔC (1-404) (Arabidopsis thaliana, UniProt Q9LSE2 1-404)
T3 construct: SCREAM (SCRM, ICE1), Arabidopsis thaliana, At3G26744, residues 1-404; GST kept for loading on anti-GST probes; also called GST SCRMΔC; SCRM1ΔC; source: E. coli BL21, purified (glutathione agarose resin); not shown: GST, N-terminal, kept
T3 sequence (looked up): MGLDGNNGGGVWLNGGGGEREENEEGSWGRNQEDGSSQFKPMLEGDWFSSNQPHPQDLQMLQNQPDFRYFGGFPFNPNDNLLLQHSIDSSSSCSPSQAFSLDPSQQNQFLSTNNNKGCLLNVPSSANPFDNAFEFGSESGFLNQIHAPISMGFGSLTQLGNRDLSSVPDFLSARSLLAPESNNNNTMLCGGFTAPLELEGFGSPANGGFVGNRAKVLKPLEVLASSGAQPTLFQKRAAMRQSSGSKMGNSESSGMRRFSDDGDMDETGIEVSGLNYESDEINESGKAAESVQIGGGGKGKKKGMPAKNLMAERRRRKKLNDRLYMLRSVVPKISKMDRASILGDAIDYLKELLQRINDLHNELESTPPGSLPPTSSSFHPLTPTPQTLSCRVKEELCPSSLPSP

T4: SCRM ACTL (405-494) (Arabidopsis thaliana, UniProt Q9LSE2 405-494)
T4 construct: SCREAM (SCRM, ICE1), Arabidopsis thaliana, At3G26744, ACT-like domain, residues 405-494; also called SCRM ACTL domain; source: E. coli BL21, purified (glutathione resin, thrombin, Superdex-200); not shown: GST, N-terminal, cleaved
T4 sequence (looked up): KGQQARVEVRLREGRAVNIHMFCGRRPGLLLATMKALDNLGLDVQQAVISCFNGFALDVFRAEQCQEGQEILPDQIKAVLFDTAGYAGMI

T5: SPCH-ACTL (285-364) (Arabidopsis thaliana, UniProt Q700C7 285-364)
T5 construct: also called SPCH ACTL domain; source: E. coli BL21, purified (glutathione resin, thrombin, Superdex-200); not shown: GST, N-terminal, cleaved
T5 sequence (looked up): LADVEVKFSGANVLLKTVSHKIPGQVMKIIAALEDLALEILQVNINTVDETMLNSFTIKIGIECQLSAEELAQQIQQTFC

T6: SPCH (ΔNSPCH, 98-364) (Arabidopsis thaliana, UniProt Q700C7 98-364)
T6 construct: the only recombinant SPCH with bHLH domain that the methods list is ΔNSPCH (98-364); source: E. coli BL21, purified (glutathione resin, thrombin, Superdex-200); not shown: GST, N-terminal, cleaved
T6 sequence (looked up): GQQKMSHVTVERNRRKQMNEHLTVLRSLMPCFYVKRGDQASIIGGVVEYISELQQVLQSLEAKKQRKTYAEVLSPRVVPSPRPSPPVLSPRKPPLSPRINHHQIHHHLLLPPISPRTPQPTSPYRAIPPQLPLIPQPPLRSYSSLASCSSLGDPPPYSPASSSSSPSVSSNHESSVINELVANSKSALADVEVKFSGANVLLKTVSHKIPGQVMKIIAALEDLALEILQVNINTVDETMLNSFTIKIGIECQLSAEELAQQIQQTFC

T7: FAMA (ΔNFAMA) (Arabidopsis thaliana, Limits not printed. Start set by analogy with the printed ΔNSPCH 98-364 (one residue before the annotated bHLH). Runs to the native C-terminus. Tag or fusion carrier omitted.)
T7 chain: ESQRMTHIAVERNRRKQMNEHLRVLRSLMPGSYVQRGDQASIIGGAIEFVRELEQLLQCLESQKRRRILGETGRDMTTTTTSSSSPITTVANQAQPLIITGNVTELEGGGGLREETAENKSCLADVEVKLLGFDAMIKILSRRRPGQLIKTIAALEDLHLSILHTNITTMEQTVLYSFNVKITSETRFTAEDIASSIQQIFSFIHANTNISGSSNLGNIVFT

B1: ΔNFAMA, recombinant (domain or fragment)
chain: T7 chain
modifications: Limits not printed. Start set by analogy with the printed ΔNSPCH 98-364, which starts one residue before its annotated bHLH (99); FAMA bHLH is 194-245. Runs to the native C-terminus, including the …
B2: MUTE-ACTL (114-202) (domain or fragment, Arabidopsis thaliana, UniProt Q9M8K6 114-202, looked up)
chain: HANVEAKISGSNVVLRVVSRRIVGQLVKIISVLEKLSFQVLHLNISSMEETVLYFFVVKIGLECHLSLEELTLEVQKSFVSDEVIVSTN
notes: MUTE, Arabidopsis thaliana, ACT-like domain, residues 114-202; source: E. coli BL21, purified (glutathione resin, thrombin, Superdex-200); not shown: GST, N-terminal, cleaved
B3: ΔNSPCH (98-364), recombinant (domain or fragment, Arabidopsis thaliana, UniProt Q700C7 98-364, looked up)
chain: T6 sequence (looked up)
notes: BLI and ITC name it only SPCH; ΔNSPCH (98-364) is the only long recombinant SPCH construct that the methods list; also called purified SPCH; source: E. coli BL21, purified (glutathione resin, thrombin, Superdex-200); not shown: GST, N-terminal, cleaved
B4: SCRM ACTL L484F (405-494) (domain or fragment, Arabidopsis thaliana, UniProt Q9LSE2 405-494, looked up)
chain: T4 sequence (looked up) with L80F
notes: SCREAM (SCRM, ICE1), Arabidopsis thaliana, At3G26744, C-terminal ACT-like domain, residues 405-494, with L484F (the methods print L485F); also called SCRM L484F ACTL; source: E. coli BL21, purified (glutathione resin, Superdex-200)
B5: SCRMΔC (1-404), GST removed (domain or fragment, Arabidopsis thaliana, UniProt Q9LSE2 1-404, looked up)
chain: T3 sequence (looked up)
notes: SCREAM (SCRM, ICE1), Arabidopsis thaliana, At3G26744, residues 1-404 (lacks the C-terminal ACTL domain); Used for ITC; the methods tell thrombin cleavage of the GST-fused proteins in general, not for ITC by name; also called SCRM1ΔC; source: E. coli BL21, purified (glutathione resin, thrombin, Superdex-200); not shown: GST, N-terminal, cleaved
B6: SCRMΔC (1-404), recombinant (domain or fragment, Arabidopsis thaliana, UniProt Q9LSE2 1-404, looked up)
chain: T3 sequence (looked up)
notes: SCREAM (SCRM, ICE1), Arabidopsis thaliana, At3G26744, residues 1-404; the purification methods tell thrombin cleavage; also called SCRM1ΔC; source: E. coli BL21, purified (glutathione resin, thrombin, Superdex-200); not shown: GST, N-terminal, cleaved

Holding throughout (conditions): both partners purified
Test [1] addresses T1, SCRM (1-494), recombinant. Nature of the test: ITC; Malvern PEAQ-ITC, 25 °C, PBS pH 7.4; 40 μM SCRM/SCRMΔC injected into 4 μM SPCH/MUTE/FAMA; single binding site model. (In ITC the heat of successive injections is recorded.)
Test [2] concerns the target B6. The test is described as above.
Another test deals with T2, GST-fused SCRM (1-494). Briefly: BLI; Octet Red96; anti-GST probes loaded with 500 nM GST-SCRM or GST-SCRMΔC; SPCH/MUTE/FAMA as analyte at 3.12-200 nM; 30 °C; 1x PBS with 0.02% Tween 20; no DNA; 1:1 model. (In general: Biolayer interferometry detects binding as a change in optical thickness at a sensor tip.)
Another test addresses T3, GST-fused SCRMΔC (1-404). The test is described as above.
The target of the next test is T4, SCRM ACTL (405-494). Briefly: ITC; Malvern PEAQ-ITC, 25 °C, PBS pH 7.4; 150 μM SCRM ACTL/SCRM L484F ACTL injected into 15 μM SPCH ACTL/MUTE ACTL.
In the next test the target is T5, SPCH-ACTL (285-364). Nature of the test: ITC; Malvern PEAQ-ITC; 150 µM SCRM ACTL/SCRM L484F ACTL injected into 15 µM SPCH ACTL/MUTE ACTL; PBS, pH 7.2 (Table S3; methods: pH 7.4); 25 °C; means of two experiments.
The target in another test is T6, SPCH (ΔNSPCH, 98-364). Briefly: ITC; Malvern PEAQ-ITC; 40 µM SCRM/SCRMΔC injected into 4 µM SPCH/MUTE/FAMA; PBS, pH 7.2 (Table S1; methods: pH 7.4); 25 °C; single binding site model; means of two experiments.
The target in a further test is T7, FAMA (ΔNFAMA). The test is described as above.
For the test “ΔNFAMA, recombinant”, the target named is B1. Nature of the test: ITC; Malvern PEAQ-ITC, 25 °C, PBS pH 7.4; 40 μM SCRM/SCRMΔC injected into 4 μM SPCH/MUTE/FAMA; single binding site model.
Test [3] has as its target B3. The description is as above.

Numbering of substitutions follows the chain as printed. Names and notes keep the numbering of the source.

Regarding B1, the Kd (usually the equilibrium constant for the complex coming apart) in test [1] came to 9.6 ± 1.4 nM; in test [2], 68 ± 5.2 nM; with GST-fused SCRM (1-494), 8.2 ± 2.1 nM; with GST-fused SCRMΔC (1-404) it was 52 ± 3.6 nM.
In the case of B2, in the test with SCRM ACTL (405-494), the affinity, expressed as Kd, was 5100 nM.
Take B3: the Kd in test [1] was 6.5 ± 1.6 nM; in [2], 61 ± 4.2 nM; with GST-fused SCRM (1-494) it was 5.2 ± 1.1 nM; with GST-fused SCRMΔC (1-404) it was 68 ± 5.5 nM.
B4: the stoichiometry N (usually the number of molecules, sites or subunits per partner or assembly) with SPCH-ACTL (285-364) turned out to be 0.85.
B5: the “stoichiometry N” value in the test with SPCH (ΔNSPCH, 98-364) worked out at 0.95; with FAMA (ΔNFAMA), 0.96.
Regarding B6, the “stoichiometry N” value was 1 with ΔNFAMA, recombinant and 1 in test [3].
